Data on two molecules can be found in publication PMC12617621 (Computational and Structural Biotechnology Journal, 2025).

The experiment has as its target T1, (NPNA)4 peptide (Plasmodium falciparum CSP repeat …).
T1 chain: NPNANPNANPNANPNA
Nature of the experiment: SPR.

B1: native anti-NANP Fab (Fab, V domains shown)
VH: EVQLVESGGGLVQPGRSLRLPCTASGFSFGDHAMSWVRQAPGKGLEWVGFIRKTTYGATTHYAAAVRGRFTISRDDSKSIVYLQMNSLKTEDTAVYFCTRVQLDYGPGYQYYGMDVWGQGTTVTVSS
VL: ESVLTQPPSVSGAPGQRVTISCTGMNSNIGAGYDVYWYQQLPGRAPKLLIYGNSNRPSGVPDRFSGSRSGTSASLAITGLQAEDEADYYCQSYDTSLNGWAFGGGTKLTVL
On to B1, for which the binding result is given as “binds”.

B2: G112T mutant anti-NANP Fab (Fab, V domains shown)
VH: EVQLVESGGGLVQPGRSLRLPCTASGFSFGDHAMSWVRQAPGKGLEWVGFIRKTTYGATTHYAAAVRGRFTISRDDSKSIVYLQMNSLKTEDTAVYFCTRVQLDYGPGYQYYGMDVWGQGTTVTVSS
VL: ESVLTQPPSVSGAPGQRVTISCTGMNSNIGAGYDVYWYQQLPGRAPKLLIYGNSNRPSGVPDRFSGSRSGTSASLAITGLQAEDEADYYCQSYDTSLNGWAFGGGTKLTVL
Consider B2, for which the binding result is recorded as “binds”.
